Source: US20250154231A1 (RQBIO COVID, published 2025)

B1: Omi09 (antibody, V domains shown)
VH: QVQLVESGGGVVQPGRSLRLSCAASGFTFRTYAVHWVRQAPGKGPEWVAVISYDGSNKYYADSVKGRFTLSRDTSKNTLYLQMNSLRAEDTAVYYCASRGDTVTTGDAFDIWGQGTMVTVSS
VL: SYELTQPPSVSVSPGQTARITCSGDALPKQYTYWYQQKPGQPPVLVIYKDSERPSGIPERFSGSSSGTTVTLTISGVQAEDEADYYCQSTDSSATYPGNVVFGGGTKLTVL
B2: Omi06 (antibody, V domains shown)
VH: EVQLLESGPGLVKPSETLSLTCTVSGGSISRYSWSWIRQPAGRGLEWIGRMYSSGGTNYNPSLESRVTMSLDTSKKQFSLKLSSVTAADTAVYYCAAASIDQVWGTYRDAFDIWGQGTMVTVSS
VL: AIRMTQSPSSLAASVGDRVTISCRAGQSISSFLHWYQQKVGKAPKLLIYDASSLQSGVPSRFSGSGSGTDFTLTISSLQPEDFAAYYCQQSYENPLTFGGGTKVDIK
B3: Omi42 (antibody, V domains shown)
VH: EVQLLETGGGLVQPGRSLRLSCAASGFPFDDYAIHWVRLAPGKGLEWVSSISWDSGSIGYADSVKGRFTISRDNAKNSLYLQMNSLRAEDTALYYCAKGAFPGYSSGWYYGLDVWGQGATVTVSS
VL: QSVVTQPPSASGSLGQSVTISCTGTSSDVGGYNYVSWYQQHPGKAPKLMIFEVSKRPSGVPDRFSGSKSGNTASLTVSGLQAEDEADYYCSSYAGNKGVFGGGTKLTVL
B4: Omi29 (antibody, V domains shown)
VH: QVQLVESGGGLVQPGGSLRLSCAASGLIVSRNYMSWVRQAPGKGLEWVSLIYAGGSTFYSDSVKGRFTISRHSSENTLFLQMNSLRAEDTAVYYCARDLVHYGMDVWGQGTTVTVSS
VL: NFMLTQPASVSGSPGQSITISCTGTSSDVGGYNYVSWYQQHPGKAPKLMIYDVSNRPSGVSNRFSGSNSGNTASLTISGLQAEDEADYYCSSYTSGSTWVFGGGTKLTVL
B5: Omi31 (antibody, V domains shown)
VH: EVQLVQSGAEVKKPGSSVKVSCKASGGTFSSYGISWVRQAPGLGLEWMGGVIPILSAKHYAQRFQGRVTITADKSTGTAYMELSSLRSEDTAVYYCARDILHHDDLWGRFYYDGMDVWGQGTTVTVSS
VL: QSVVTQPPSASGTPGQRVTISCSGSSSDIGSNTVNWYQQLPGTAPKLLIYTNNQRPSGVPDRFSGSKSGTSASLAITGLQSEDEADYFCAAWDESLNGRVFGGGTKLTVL
B6: Omi25 (antibody, V domains shown)
VH: QVQLVESGGGLVQPGRSLRLSCAASGFTFDDYAMHWVRQVPGKGLEWVSGISWNSGSIVYADFVKGRFTIARDNAKNSLFLQMNSLRAEDTALYYCAKSTALRHQYYYGMDVWGQGTTVTVSS
VL: AIQMTQSPSSLSASVGDRVTITCRTSQTISSYLNWYQQKPGKAPKLLIYDASSLQSGVPSRFSGSGYGTDFTLTISSLQPEDFATYFCQQSYNTPYAFGQGTKVEIK
B7: Omi12 (antibody, V domains shown)
VH: EVQLVESGPEVKKPGTSVKVSCKASGFSFSMSAMQWVRRARGQRLEWIGWIVPGSGNANYAQKFQERVTITRDESTNTGYMELSSLRSEDTAVYYCAAPHCNKTNCYDAFDIWGQGTMVTVSS
VL: AIRMTQSPGTLSLSPGERATLSCRASQSVRSSYLAWYQQKPGQAPRLLIYGASTRATGIPDRFSGSGSGTDFILTINRLEPEDLAVYYCQQFGSSPWTFGQGTKVDIK
B8: Omi32 (antibody, V domains shown)
VH: EVQLVESGGGVVQPGRSLRLSCAASGFTFSNYGMHWVRQAPGKGLEWVAVYWYDGGNKFYADSVKGRFTISRDNSKNTLYLQMNSLRVEDTAVYYCARDTAPPDYWGQGTLVTVSS
VL: AIRMTQSPGTLSLSPGERATLSCRASQSISSSFLAWYQQKPGQAPRLLIYGASSRATGIPDRFSGSGSGTDFTLTISRLEPEDFAVYYCQQYGTSPRLTFGGGTKVDIK
B9: Omi36 (antibody, V domains shown)
VH: EVQLVESGGGVVQPGGSLRLSCAASGIIVSANYMTWVRQAPGKGLEWVSVIYPGGSTFYADSVKGRFTISRDNSKNTLYLQMNSLRVEDSAVYYCARDLELAGFNDYWGQGTLVTVSS
VL: DIVMTQSPGTLSLSPGERATLSCRTSQSVSSNYLAWYQQKPGQAPRLLIYGASSRATGIPDRFSGSGSGTDFTLTISRLEPEDFAVYYCQQFGSSPRYTFGQGTKVEIK
B10: Omi35 (antibody, V domains shown)
VH: QVQLVESGGGLVQPGRSLRLSCAASGFTFDDYAMHWVRQAPGKGLEWVSGSTWNSGTIDYADSVKGRFTISRDNAKNSLYLQMNSLRAEDTALYYCAKDRFRKGCSSTGCYKENYGMDVWGQGTTVTVSS
VL: QSVVTQPPSVSVAPGQTARITCGGTNIGSKSVHWYQQKPGQAPVLVVYDDSDRPSGIPERFSGSNSGNTATLTITWVEAGDEADYYCQVWDSSSDNVLFGGGTKLTVL
B11: Omi34 (antibody, V domains shown)
VH: QVQLVQSGAEVKKPGSSVKVSCKASGGTFSSYGIRWVRQAPGQGLEWMGGIIPVFGATNYAQKFQDRVTITADKSTATAYMELSSLKSDDTAVYFCARDALSASGWTGPFDSWGQGTLVTVSS
VL: QSVLTQPPSVSGAPGQRVTISCTGSSSNIGADYDVHWYQQLPGAAPKLLIYGNNNRPSGVPDRFSGSKSGTSASLAITGLQAEDEADYYCQSYDSSQNAFYVFGTGTKVTVL
B12: Omi23 (antibody, V domains shown)
VH: QVQLQESGPGLVKSSQTLSLTCTVSGDSISRGGYYWSWIRQHPGKGLEWIGSIYYSGSTYYNPSLKSRFTISVDTSKNQFSLKLSSVTAADTAVYHCAREIGFLDYWGQGTLVTVSS
VL: AIQMTQSPSSLSASVGDRVTITCRASQAISNSLAWYQQKPGKAPKLLLYAASTLESGVPSRFSGSGSGTDFTLTISSLQPEDFATYFCQQYYSTPPRTFGQGTKVDIK
B13: Omi27 (antibody, V domains shown)
VH: EVQLLESGGGLVQPGGSLRLSCVASGLTVSSNYMSWVRQAPGKGLEWVSIIYPGGTTYYADSVKGRFTTSRDKSKNTLYLQMNSLRAEDTAVYYCARDLAVAGGMDVWGQGTTVTVSS
VL: EIVMTQSPSSLSASVGDRVTITCRASQGIGNDLGWYQQKPGKAPKVLIYAASNLQSGVPSRFSGSGSGTDFTLTISSLQPEDFATYYCLQDSNYPYTFGQGTKVEIK
B14: Omi30 (antibody, V domains shown)
VH: EVQLVESGAEVKKPGSSVKVSCKASGGTFSRYAISWVRQAPGQGLEWMGGIIPIFDATNYAQKFHDRVTITADKSASTAYMELSSLRSDDTAVYYCARERTYCSGGTCYGGYFYYGMDVWGQGTTVTVSS
VL: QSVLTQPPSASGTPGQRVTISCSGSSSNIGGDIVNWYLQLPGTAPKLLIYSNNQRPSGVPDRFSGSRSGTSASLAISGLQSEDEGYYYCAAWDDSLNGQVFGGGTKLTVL
B15: Omi38 (antibody, V domains shown)
VH: QVQLVESGAEVKKPGSSVKVSCKASGGNFNMYTISWVRQAPGRGLEWMGRFIPIANKANYAQNFPGRVTITADKSTSTVYMELRSLTSDDTAVYYCARSGSYDAFDVWGQGTMVTVSS
VL: AIRMTQSPSTLSASVGDRVTITCRASQTINSWLAWYQQKPGKAPKLLIYDASNLESGVPSRFSGSGSGTEFTLTISSLQPDDFATYYCQQYESYSPITFGQGTRLEIK
B16: Omi08 (antibody, V domains shown)
VH: EVQLVESGAEVKRPGASVKVSCKASGYTFTNYFMHWVRQAPGQGLEWMGVINPSDGGASYPQKFQGRVTMTRDTSTSTVYMDLSSLRSEDTAVYSCARGAFDVSGSWYVPFDYWGQGTLVTVSS
VL: QSVVTQPPSVSGAPGQRVTISCTGSSSNIGAGYDVHWYQQLPGAAPKLLIYGNTNRPSGVPDRFSGSKSGTSASLAITGLQAEDEADYYCQSYDITLSGSGYVFGTGTKVTVL
B17: Omi39 (antibody, V domains shown)
VH: QVQLVESGGVVVQPGGSLRLSCAASGFSFDDYSMHWVRQAPGKGLEWVSVIYWDGVSKYYADSVKGRFTISRDNSKNSLYLQMNSLRTEDTAVYYCAKDSEDCSSTSCYMDVWGKGTTVTVSS
VL: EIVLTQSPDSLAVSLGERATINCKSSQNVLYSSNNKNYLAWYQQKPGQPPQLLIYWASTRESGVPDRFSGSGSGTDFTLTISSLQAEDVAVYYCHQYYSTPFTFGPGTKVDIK
B18: Omi28 (antibody, V domains shown)
VH: EVQLVESGGGLVQPGGSLRLSCAASGVIVSSNYMSWVRQAPGKGLQWVSVIYSGGSTFYADSVKGRFTISRDNSKNTLYLQMNSLRAEDTAVYYCARDLLEAGGTDYWGQGTLVTVSS
VL: DVVMTQSPGTLSLSPGERATLSCRASQFIGSSYLAWYQQKPGQAPRLLIYGASNRATGVPDRFSGSGSGTDFTLTISRLEPEDFAVYYCQQYGSAPGTFGQGTKVEIK
B19: Omi20 (antibody, V domains shown)
VH: EVQLVESGGGLVQPGGSLRLSCEASEITVSSNYMNWVRQAPGKGLEWVSVLFAGGTTYYADSVKGRFTISRDNSKNTLYLQMNTLRIEDTAIYYCARDLVAYGVDVWGQGTTVTVSS
VL: AIQMTQSPSFLSASVGDRVTITCRASQGISGDLAWYQQKPGKAPKLLIYAASTLQSGVPSRFSGSGSGTEFTLTISSLQPEDFATYYCQHLNSYPLTFGGGTKVEIK
B20: Omi41 (antibody, V domains shown)
VH: QVQLVQSGAEVKKPGASVKVSCKAAGYSFMNYGINWVRQAPGQGLEWMGWINTYNGNAKYAQKFQGRVTMTTDTSTSTAYMELRSLRSGDTAVYYCARDPFTGYDDVWGGDYWGQGTLVTVSS
VL: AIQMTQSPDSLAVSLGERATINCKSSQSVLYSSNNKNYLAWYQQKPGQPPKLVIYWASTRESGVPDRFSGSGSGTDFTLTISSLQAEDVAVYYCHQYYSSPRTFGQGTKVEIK
B21: Omi02 (antibody, V domains shown)
VH: EVQLVESGAEVKKPGSSVKVSCKASGGTFSSYAINWVRQAPGQGLEWMGGIIPIFRTPHYAQKFQGRVTITADESTGTAYMELSSLRSEDTAVYYCASPSCGGDCPQYLKSSKLDWYFDLWGRGTLVTVSS
VL: VIWMTQSPGTLSLSPGERATLSCRASQSVSSTYLAWYQQKPGQAPRLLIYGASSRATGIPDRFSGSGSGTDFTLTISRLEPEDFAVYYCQHYGSSPLTFGQGTRLEIK
B22: Omi24 (antibody, V domains shown)
VH: QVQLVESGAEVKKPGSSVKVSCKASGGTFSSHGVIWVRQAPGQGLEWMGGIIPIFPTANYAQKFQGRVTITADKPSNTAYMELSSLRSEDTAVYYCARARGEHDSVWGSFHYYFDYWGQGTLVTVSS
VL: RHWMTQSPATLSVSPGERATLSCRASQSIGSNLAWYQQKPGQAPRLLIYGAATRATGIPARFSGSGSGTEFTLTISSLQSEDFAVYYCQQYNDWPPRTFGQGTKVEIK
B23: Omi26 (antibody, V domains shown)
VH: QVQLVQSGTEVKKPGASVKVSCKASDYTFTRFGIIWVRQAPGQGLEWMGQINPYNGNTDYAQKFQGRVTLTTDTSTNTAYMELRSLRSDDTAVYYCARSAGSPTGLDYWGQGTLVTVSS
VL: QSVVTQPPSVSEAPRQRVTISCSGSNSNIGNNAVNWYQQLPGKAPKLLVYYDDLLPSGVSDRFSGSKSGTSASLAISGLQSEDKADYYCAAWDDSLNALVFGGGTKLTVL

The binders below were run against SARS-CoV-1 S protein (SARS-CoV-1, UniProt P59594 14-1195) (assay: ELISA).

Row | Binder | binding result
1 | B1 | no binding
2 | B2 | no binding
3 | B3 | no binding
4 | B4 | no binding
5 | B5 | no binding
6 | B6 | no binding
7 | B7 | no binding
8 | B8 | no binding
9 | B9 | no binding
10 | B10 | no binding
11 | B11 | no binding
12 | B12 | no binding
13 | B13 | no binding
14 | B14 | no binding
15 | B15 | no binding
16 | B16 | no binding
17 | B17 | no binding
18 | B18 | no binding
19 | B19 | no binding
20 | B20 | no binding
21 | B21 | no binding
22 | B22 | no binding
23 | B23 | no binding
